We go through 5 molecules from US10640563B2, “Anti-B7-H3 antibodies and antibody drug conjugates” (AbbVie Inc., priority 2016, dated 2020).

Experiment [1] has as its target T1, B7-H3 (Homo sapiens, UniProt Q5ZPR3).
T1 construct: His tag (6xHis) (C); made in house
T1 sequence (Q5ZPR3 with tags, fused parts or gaps): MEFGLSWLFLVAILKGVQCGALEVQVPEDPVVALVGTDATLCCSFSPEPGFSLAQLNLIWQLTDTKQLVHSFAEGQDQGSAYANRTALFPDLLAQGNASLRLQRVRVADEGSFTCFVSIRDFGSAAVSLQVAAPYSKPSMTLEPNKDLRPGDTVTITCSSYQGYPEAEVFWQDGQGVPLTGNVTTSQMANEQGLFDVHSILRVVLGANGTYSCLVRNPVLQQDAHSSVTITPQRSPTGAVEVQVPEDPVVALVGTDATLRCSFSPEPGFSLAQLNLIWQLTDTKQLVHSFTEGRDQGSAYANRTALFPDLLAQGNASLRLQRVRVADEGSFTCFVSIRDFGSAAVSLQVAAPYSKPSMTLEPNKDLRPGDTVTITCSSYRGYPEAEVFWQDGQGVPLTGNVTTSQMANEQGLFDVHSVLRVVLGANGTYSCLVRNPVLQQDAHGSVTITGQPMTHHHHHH
Briefly: Pair-wise SPR binding assay for epitope grouping. Particulars: simultaneous binding assay, 12° C. An excerpt:
Pair-wise binding assays performed on Biacore T200 SPR instruments were used to determine the relative epitope grouping for the murine anti-B7-H3 mAbs as described in the methods below. […] Epitope groups are represented as individual ovals, some of which overlap with each other. Antibodies in different epitope groups can bind to B7-H3 simultaneously and likely bind to different epitopes while antibodies within a given epitope group cannot bind to B7-H3 simultaneously and likely bind to overlapping epitopes. The grouping information was derived from a simultaneous binding assay as described in materials and methods. Ab3, Ab4, Ab5, Abl 1, Ab12, and Ab8 groupings were ambiguous.
Pair-wise binding assays performed on Biacore T200 SPR instruments were used to determine the relative epitope grouping for a series of anti-B7-H3 mAbs. The assay format was Fc-based capture via immobilized anti-mouse(Fc) (Pierce 31170) or immobilized anti-human (Fc) (Pierce 31125). A standard amine coupling protocol was employed to immobilize the capture reagents via primary amines to the carboxy-methyl (CM) dextran surface of CM5 sensorchips (Biacore); capture antibodies were coupled to a level of approximately 2000 RU. Epitope grouping measurements were done at 12° C. (low temperature allows for grouping information on fast off-rate mAbs), the assay buffer was HBS-EP+(Biacore): 10 mM Hepes, pH7.4, 150 mM NaCl, 3 mM EDTA, 0.05% polysorbate 20. Each assay cycle consisted of the following steps in a four flowcell system: 1) separate test mAbs were captured in flowcells 2, 3 & 4 (flowcell 1 was reference, no test mAb); 2) all 4 flowcells were then blocked by injection with isotype control mAb or isotype mAb cocktail at 50 μg/mL; 3) all 4 flowcells were then injected with antigen or buffer only (buffer only is for double referencing, done for each mAb pair individually); 4) all 4 flowcells were then injected with 2nd test mAb at 10 μg/mL; 5) all 4 flowcells were then regenerated with glycine, pH1.5. The assay was done for each test mAb pair in reciprocal orientations. Simultaneous binding was evaluated examining the ratio of the 2nd test mAb response to the Ag response (RUmAb2/RUAg); if this ratio was equal to or greater than 0.2 the interaction was scored as a simultaneous binder. From this pair-wise binding assay data a “venn” style diagram was constructed manually to depict relative epitope groupings.

The subject of experiment [2] is soluble ECD of cyno B7-H3. Nature of the experiment: Biacore T200 SPR binding kinetics, mAb capture. Details: species or system cynomolgus monkey. Particulars: Biacore T200, Fc capture of mAb, B7-H3 ECD as analyte, 1:1 binding model. In general terms: In SPR one partner is held on a chip, and binding of the other changes the refractive index at the surface.
The target of experiment [3] is T2, soluble ECD of human B7-H3 (Homo sapiens, UniProt Q5ZPR3).
T2 construct: His tag (6xHis) (C); made in house
T2 sequence (Q5ZPR3 with tags, fused parts or gaps): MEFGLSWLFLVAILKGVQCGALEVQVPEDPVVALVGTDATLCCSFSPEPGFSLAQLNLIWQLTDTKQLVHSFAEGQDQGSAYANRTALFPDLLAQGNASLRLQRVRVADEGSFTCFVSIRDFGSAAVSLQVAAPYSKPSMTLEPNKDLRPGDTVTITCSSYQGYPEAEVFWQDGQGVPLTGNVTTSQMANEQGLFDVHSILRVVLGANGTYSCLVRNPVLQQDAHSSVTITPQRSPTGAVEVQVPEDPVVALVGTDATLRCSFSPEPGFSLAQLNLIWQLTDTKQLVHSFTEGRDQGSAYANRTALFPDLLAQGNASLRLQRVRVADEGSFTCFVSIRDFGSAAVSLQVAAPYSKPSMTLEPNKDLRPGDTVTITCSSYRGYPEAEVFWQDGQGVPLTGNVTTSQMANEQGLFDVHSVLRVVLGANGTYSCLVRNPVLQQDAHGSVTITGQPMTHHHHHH
Briefly: Biacore T200 SPR binding kinetics, mAb capture. Particulars: Biacore T200, Fc capture of mAb, B7-H3 ECD as analyte, 1:1 binding model. On the procedure: The binding affinity of the purified anti-B7-H3 monoclonal antibodies was determined by surface […]. […] The binding kinetics were derived from SPR measurements using a Biacore T200 instrument and a mAb capture approach (as described in the materials and methods below).
Biacore T200 SPR instruments were used to measure the binding kinetics of human B7-H3 (analyte) binding to various mAbs (ligands). The assay format was Fc-based capture via immobilized anti-mouse (Fc) (Pierce 31170) or immobilized anti-human (Fc) (Pierce 31125). A standard amine coupling protocol was employed to immobilize the capture reagents via primary amines to the carboxy-methyl (CM) dextran surface of CM5 sensorchips (Biacore); capture antibodies were coupled to a level of approximately 5000 RU. For binding kinetic measurements the assay buffer was HBS-EP+ (Biacore): 10 mM Hepes, pH7.4, 150 mM NaCl, 3 mM EDTA, 0.05% polysorbate 20. During the assay, all measurements were referenced against the capture surface alone. Each assay cycle consisted of the following steps: 1) Capture of ligand to approximately 50 RU; 2) Analyte injection over both reference and test surface, 240 μL at 80 μL/min, after which the dissociation was monitored for 900 seconds at 80 μL/min; 3) Regeneration of capture surface with low pH glycine. For kinetic determinations analyte injections were 3-point, 9-fold dilution series of 900 nM, 100 nM and 11.11 nM, buffer only injections were included for secondary referencing. Data were processed and fit to a 1:1 binding model using Biacore T200 Evaluation Software to determine the binding kinetic rate constants, ka (on-rate) and kd (off-rate), and the equilibrium dissociation constant (affinity, KD).

soluble ECD of cyno B7-H3, sequence (as listed by the source): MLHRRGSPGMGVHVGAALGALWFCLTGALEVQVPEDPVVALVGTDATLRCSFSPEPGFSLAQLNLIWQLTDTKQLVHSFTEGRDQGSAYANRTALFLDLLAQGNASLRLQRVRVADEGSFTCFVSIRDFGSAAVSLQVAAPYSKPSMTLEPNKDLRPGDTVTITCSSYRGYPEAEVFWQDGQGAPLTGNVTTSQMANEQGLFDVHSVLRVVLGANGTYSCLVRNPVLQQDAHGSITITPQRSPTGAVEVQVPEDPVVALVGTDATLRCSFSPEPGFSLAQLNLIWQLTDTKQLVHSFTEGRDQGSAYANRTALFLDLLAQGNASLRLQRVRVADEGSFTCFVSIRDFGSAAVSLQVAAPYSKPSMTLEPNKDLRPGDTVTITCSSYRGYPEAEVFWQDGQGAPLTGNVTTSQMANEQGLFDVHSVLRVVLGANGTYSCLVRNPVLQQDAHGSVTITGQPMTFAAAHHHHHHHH

B1: Ab4: murine anti-B7-H3 mAb (mouse hybridoma derived) (antibody, V domains shown)
VH: QVQLQQPGAELVKPGASVKLSCKASGYSFTSYWMHWVKQRPGQGLEWIGMIHPNSGSNNYNEKFKSKATLTVDKSSNTAYMQLSSLTSEDSAVYYCARRLGLHFDYWGQGTTLTVSS
VL: DIVMTQSQKFMSTPVGDRVSITCKASQNVGTAVAWYQQKPGQSPKLLIYSASNRYTGVPDRFTGSGSGTDFTLTISNMQSEDLADYFCQQYSSYPYTFGGGTKLEIK
B1: in experiment [1], the “relative human B7-H3 epitope grouping” value is “ambiguous”. Moreover, in experiment [2], the “cynoB7-H3 ka” value amounted to 540000 M⁻¹ s⁻¹ and the “cynoB7-H3 kd” value was found to be 0.00096 s⁻¹. In experiment [3], the “huB7-H3 ka” value came out at 690000 M⁻¹ s⁻¹ and the “huB7-H3 kd” value was 0.0011 s⁻¹.

B2: Ab11: murine anti-B7-H3 mAb (mouse hybridoma derived) (antibody, V domains shown)
VH: EVKLVESGGGLVQPGGSLRLSCATSGFTFTNYYMSWVRQPPGKALEWLGFIRNKANDYTTEYSASVKGRFTISRDNSQSILYLQMNTLRAEDSATYYCARESPGNPFAYWGQGTLVTVSA
VL: DIVMTQSPSSLTVTAGEKVTMTCKSSQSLLNSGTQKNFLTWYQQKPGQPPKLLIYWASTRESGVPDRFTGSGSGTDFTLTISSVQAEDLAVYFCQNDYIYPLTFGAGTKLELK
B2: the “relative human B7-H3 epitope grouping” value in experiment [1] is given as “ambiguous”. Also, in experiment [2], the “cynoB7-H3 ka” value was 27000 M⁻¹ s⁻¹ and the “cynoB7-H3 kd” value stood at 7.2e-05 s⁻¹. Further, in experiment [3], the “huB7-H3 ka” value worked out at 20000 M⁻¹ s⁻¹ and the “huB7-H3 kd” value came out at 0.00089 s⁻¹.

B3: Ab3: murine anti-B7-H3 mAb (mouse hybridoma derived) (antibody, V domains shown)
VH: QVQLQQPGAELVKPGASVKLSCKASGYTFSSYWMHWVKQRPGQGLEWIGLIHPDSGSTNYNEMFKNKATLTVDRSSSTAYVQLSSLTSEDSAVYFCAGGGRLYFDYWGQGTTLTVSS
VL: DVVMTQTPLSLPVSLGDQASISCRSSQSLVHSNGDTYLRWYLQKPGQSPKLLIYKVSNRFSGVPDRFSGSGSGTDFTLKITRVEAEDLGVYFCSQSTHVPYTFGGGTKLEIK
B3: the “relative human B7-H3 epitope grouping” value in experiment [1] is listed as “ambiguous”. Further, in experiment [2], the “cynoB7-H3 ka” value was determined as 380000 M⁻¹ s⁻¹ and the “cynoB7-H3 kd” value is 0.01 s⁻¹. Moreover, in experiment [3], the “huB7-H3 ka” value came to 520000 M⁻¹ s⁻¹ and the “huB7-H3 kd” value came out at 0.01 s⁻¹.

B4: Ab5: murine anti-B7-H3 mAb (mouse hybridoma derived) (antibody, V domains shown)
VH: QVQLQQPGDELVKPGASVKLSCKTSGYTFTTDWMHWVKQRPGQGLEWIGMIHPNSGTTNYNEKFKSKAALTVDKSSSTACMQLSSLTSEDSAVYYCARSYWKWYFDVWGTGTTVTVSS
VL: QIVLTQSPAIMSASLGEEITLTCSASSSVSYMHWYQQKSGTSPKLLIYSTSNLASGVPSRFSGSGSGTFYSLTISSVEAEDSADYYCHQWTSYMYTFGGGTKLEIK
For the molecule B4, in experiment [1], the “relative human B7-H3 epitope grouping” value is recorded as “ambiguous”. Moreover, in experiment [2], the “cynoB7-H3 ka” value was determined as 1.4e+06 M⁻¹ s⁻¹ and the “cynoB7-H3 kd” value was 0.28 s⁻¹. Besides, in experiment [3], the “huB7-H3 ka” value turned out to be 1.3e+06 M⁻¹ s⁻¹ and the “huB7-H3 kd” value amounted to 0.012 s⁻¹.

B5: Ab12: murine anti-B7-H3 mAb (mouse hybridoma derived) (antibody, V domains shown)
VH: EVQLVESGGGLVKPGGSLKLSCAASGFTFSSYAMSWVRQTPEKRLEWVATISSGTNYTYYPDSVKGRFTISRDNAKNTLYLQMTSLRSEDTAMYYCARQGRYSWIAYWGQGTLVTVSA
VL: DIVLTQSPASLAVSLGQRATISCRASKSVSTSDYSYMHWNQQKPGQPPKLLIYLASNLESGVPARFSGSGSGTDFTLNIHPVEEEDAATYYCQHSRELLTFGAGTKLELK
Regarding B5, in experiment [1], the “relative human B7-H3 epitope grouping” value is on record as “ambiguous”. Moreover, in experiment [2], the “cynoB7-H3 ka” value was 55000 M⁻¹ s⁻¹ and the “cynoB7-H3 kd” value was determined as 1e-05 s⁻¹. In experiment [3], the “huB7-H3 ka” value was found to be 38000 M⁻¹ s⁻¹ and the “huB7-H3 kd” value was determined as 0.00025 s⁻¹.
